Test results published in article PMC6226536.

Biological target: SlOFP20 (full length, expressed in N. benthamiana leaf cells) (tomato)

## SlTRM5 (full length, expressed in N. benthamiana leaf cells) (natural protein)
  cells in which SlTRM5 stayed on the microtubules on co-expression with SlOFP20 in N. benthamiana leaf epidermal cells (% of the cells): 71
